Data taken from publication PMC9482650, “Quantitative fragmentomics allow affinity mapping of interactomes” (Nature Communications, 2022).
Each block holds one binder with its values, some of them ahead of it.

How the values were obtained:
Test in all cases: holdup assay
Parameters in all cases: key: below the threshold = too weak to quantify, mostly under pKd 3.1 to 4
[1] = biological target: DLG1_1, Q12959
[2] = biological target: PICK1, Q9NRD5
[3] = biological target: GRIP2_7, Q9C0E4
[4] = biological target: DLG2_2, Q15700
[5] = biological target: T1, LIN7A, O14910
T1 sequence (O14910 103-200, limits assumed, looked up): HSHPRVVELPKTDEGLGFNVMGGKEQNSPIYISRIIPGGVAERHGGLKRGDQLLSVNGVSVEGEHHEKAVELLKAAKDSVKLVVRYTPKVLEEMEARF

[6] = biological target: MAGI3_2, Q5TCQ9
[7] = biological target: GRIP2_3, Q9C0E4
[8] = biological target: LNX1_3, Q8TBB1
[9] = biological target: T2, PCLO, Q9Y6V0
T2 sequence (Q9Y6V0 4491-4600, limits assumed, looked up): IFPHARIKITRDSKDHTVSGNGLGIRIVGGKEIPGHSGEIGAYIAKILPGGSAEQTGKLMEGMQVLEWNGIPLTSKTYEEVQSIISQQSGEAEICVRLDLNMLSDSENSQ

[10] = biological target: LDB3, O75112
[11] = biological target: GRIP2_5, Q9C0E4
[12] = biological target: T3, PARD3B_1, Q8TEW8
T3 sequence (Q8TEW8 196-299, limits assumed, looked up): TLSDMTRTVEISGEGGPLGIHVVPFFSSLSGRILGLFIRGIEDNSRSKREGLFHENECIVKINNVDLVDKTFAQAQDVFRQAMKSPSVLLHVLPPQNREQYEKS

[13] = biological target: DLG1_2, Q12959
[14] = biological target: DLG1_3, Q12959
[15] = biological target: MAST2, Q6P0Q8
[16] = biological target: T4, SNTG2, Q9NY99
T4 sequence (Q9NY99 68-166, limits assumed, looked up): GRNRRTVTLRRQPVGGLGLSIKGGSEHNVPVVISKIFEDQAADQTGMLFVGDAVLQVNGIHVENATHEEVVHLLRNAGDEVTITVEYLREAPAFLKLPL

[17] = biological target: T5, MPDZ_5, O75970
T5 sequence (O75970 695-796, limits assumed, looked up): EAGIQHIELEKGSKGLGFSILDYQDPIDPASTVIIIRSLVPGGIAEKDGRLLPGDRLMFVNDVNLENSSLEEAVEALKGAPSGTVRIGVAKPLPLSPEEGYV

[18] = biological target: Inadl_10, Q8NI35
[19] = biological target: IL16_3, Q14005
[20] = biological target: TJP1_3, Q07157
[21] = biological target: T6, ARHGAP21, Q5T5U3
T6 sequence (Q5T5U3 45-169, limits assumed, looked up): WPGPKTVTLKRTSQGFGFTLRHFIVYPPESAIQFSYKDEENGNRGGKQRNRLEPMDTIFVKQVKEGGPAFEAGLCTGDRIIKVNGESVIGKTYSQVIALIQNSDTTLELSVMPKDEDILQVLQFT

[22] = biological target: FRMPD4, Q14CM0
[23] = biological target: T7, TX1BP3, O14907
T7 sequence (O14907 10-122, limits assumed, looked up): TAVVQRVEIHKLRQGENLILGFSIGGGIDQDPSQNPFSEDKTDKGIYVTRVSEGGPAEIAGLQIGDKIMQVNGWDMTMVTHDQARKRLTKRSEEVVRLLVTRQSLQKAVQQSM

[24] = biological target: Inadl_5, Q8NI35
[25] = biological target: T8, LIN7B, Q9HAP6
T8 sequence (Q9HAP6 88-185, limits assumed, looked up): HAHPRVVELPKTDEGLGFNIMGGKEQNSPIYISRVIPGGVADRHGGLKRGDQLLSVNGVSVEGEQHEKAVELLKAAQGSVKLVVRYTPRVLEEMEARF

[26] = biological target: T9, DLG3_3, Q92796
T9 sequence (Q92796 374-475, limits assumed, looked up): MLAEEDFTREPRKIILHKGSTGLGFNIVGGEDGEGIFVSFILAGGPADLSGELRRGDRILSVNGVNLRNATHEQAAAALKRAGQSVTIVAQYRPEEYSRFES

[27] = biological target: GRASP, Q7Z6J2
[28] = biological target: T10, PDZD7_3, Q9H5P4
T10 sequence (Q9H5P4 857-944, limits assumed, looked up): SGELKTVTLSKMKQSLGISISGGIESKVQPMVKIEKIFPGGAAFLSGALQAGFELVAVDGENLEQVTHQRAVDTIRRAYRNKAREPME

[29] = plain residues with an end cap or a label only (N-terminal biotin on a linker: ahx)
[30] = plain residues with an end cap or a label only (N-terminal biotin on a linker: ttds)

Sequence of Inadl_5, Q8NI35 (Q8NI35 673-780): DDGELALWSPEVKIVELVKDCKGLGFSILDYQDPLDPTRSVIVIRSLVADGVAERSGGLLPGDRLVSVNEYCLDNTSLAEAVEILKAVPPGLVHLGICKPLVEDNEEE
Sequence of LNX1_3, Q8TBB1 (Q8TBB1 500-596): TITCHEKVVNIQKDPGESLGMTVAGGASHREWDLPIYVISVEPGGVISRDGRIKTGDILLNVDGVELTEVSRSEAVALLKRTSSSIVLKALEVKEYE
Sequence of LDB3, O75112 (O75112 1-94): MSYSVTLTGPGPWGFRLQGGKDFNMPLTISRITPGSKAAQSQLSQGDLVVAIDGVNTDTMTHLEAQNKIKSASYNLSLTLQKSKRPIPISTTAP
Sequence of MAST2, Q6P0Q8 (Q6P0Q8 1099-1202): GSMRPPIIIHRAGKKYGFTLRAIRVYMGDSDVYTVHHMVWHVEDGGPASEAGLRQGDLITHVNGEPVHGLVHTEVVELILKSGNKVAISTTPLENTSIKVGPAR
Sequence of MAGI3_2, Q5TCQ9 (Q5TCQ9 398-503): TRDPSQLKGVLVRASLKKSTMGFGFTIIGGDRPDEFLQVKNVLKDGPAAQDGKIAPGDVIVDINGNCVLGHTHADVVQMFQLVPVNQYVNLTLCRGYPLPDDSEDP
Sequence of FRMPD4, Q14CM0 (Q14CM0 67-160): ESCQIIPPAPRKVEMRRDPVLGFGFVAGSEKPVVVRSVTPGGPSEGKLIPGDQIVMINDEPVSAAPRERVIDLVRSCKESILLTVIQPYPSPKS
Sequence of DLG2_2, Q15700 (Q15700 189-283): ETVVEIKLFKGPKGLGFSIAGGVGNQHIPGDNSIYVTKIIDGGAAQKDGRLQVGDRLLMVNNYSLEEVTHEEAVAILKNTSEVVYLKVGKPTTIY
Sequence of TJP1_3, Q07157 (Q07157 416-512): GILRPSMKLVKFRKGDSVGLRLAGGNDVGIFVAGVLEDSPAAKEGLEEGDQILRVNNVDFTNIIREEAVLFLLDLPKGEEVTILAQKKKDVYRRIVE
Sequence of Inadl_10, Q8NI35 (Q8NI35 1673-1763): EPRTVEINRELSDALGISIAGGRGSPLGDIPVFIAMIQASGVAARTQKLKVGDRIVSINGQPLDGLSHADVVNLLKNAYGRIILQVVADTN
Sequence of GRIP2_5, Q9C0E4 (Q9C0E4 544-642): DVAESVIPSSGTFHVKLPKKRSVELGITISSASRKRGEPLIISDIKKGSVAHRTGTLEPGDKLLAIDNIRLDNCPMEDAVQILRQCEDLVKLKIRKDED
Sequence of IL16_3, Q14005 (Q14005 1107-1207): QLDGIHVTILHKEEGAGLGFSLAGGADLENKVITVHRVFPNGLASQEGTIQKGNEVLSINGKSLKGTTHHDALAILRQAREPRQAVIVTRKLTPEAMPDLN
Sequence of GRIP2_7, Q9C0E4 (Q9C0E4 934-1023): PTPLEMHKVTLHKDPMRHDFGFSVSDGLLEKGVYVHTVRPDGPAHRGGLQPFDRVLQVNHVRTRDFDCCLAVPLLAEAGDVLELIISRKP
Sequence of GRASP, Q7Z6J2 (Q7Z6J2 96-193): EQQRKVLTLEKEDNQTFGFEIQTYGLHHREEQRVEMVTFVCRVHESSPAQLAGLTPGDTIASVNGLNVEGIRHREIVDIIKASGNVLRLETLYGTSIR
Sequence of PICK1, Q9NRD5 (Q9NRD5 17-115): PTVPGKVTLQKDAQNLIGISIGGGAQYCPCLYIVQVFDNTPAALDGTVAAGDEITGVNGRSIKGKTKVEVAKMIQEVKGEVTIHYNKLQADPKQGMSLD
Sequence of GRIP2_3, Q9C0E4 (Q9C0E4 238-339): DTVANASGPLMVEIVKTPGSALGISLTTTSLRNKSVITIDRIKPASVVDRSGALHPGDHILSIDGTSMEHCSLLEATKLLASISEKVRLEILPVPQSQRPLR

pKd [1, 29]: below the threshold | pKd [2, 29]: below the threshold | pKd [3, 29]: below the threshold | pKd [4, 29]: below the threshold | pKd [5, 29]: below the threshold | pKd [6, 29]: below the threshold | pKd [7, 29]: below the threshold | pKd [8, 29]: below the threshold | pKd [9, 29]: below the threshold | pKd [10, 29]: below the threshold | pKd [11, 29]: below the threshold | pKd [12, 29]: below the threshold | pKd [13, 29]: below the threshold | pKd [14, 29]: below the threshold | pKd [15, 29]: below the threshold | pKd [16, 29]: below the threshold | pKd [17, 29]: below the threshold | pKd [18, 29]: below the threshold | pKd [19, 29]: below the threshold | pKd [20, 29]: below the threshold | pKd [21, 29]: below the threshold | pKd [22, 29]: below the threshold | pKd [23, 29]: below the threshold | pKd [24, 29]: below the threshold | pKd [25, 29]: below the threshold | pKd [26, 29]: below the threshold | pKd [27, 29]: below the threshold
B1: PDLIM4, P50479;P50479-2 (peptide)
chain: PSASCAVTAA

pKd [1, 30]: 4.2 | pKd [2, 30]: below the threshold | pKd [3, 30]: 3.63 | pKd [4, 30]: 4.23 | pKd [5, 30]: below the threshold | pKd [6, 30]: 4.65 | pKd [7, 30]: below the threshold | pKd [8, 30]: below the threshold | pKd [9, 30]: 3.71 | pKd [10, 30]: below the threshold | pKd [11, 30]: below the threshold | pKd [12, 30]: 3.68 | pKd [15, 30]: 3.89 | pKd [16, 30]: 3.71 | pKd [17, 30]: 3.66 | pKd [19, 30]: below the threshold | pKd [20, 30]: below the threshold | pKd [21, 30]: 3.64 | pKd [22, 30]: 3.55 | pKd [23, 30]: 3.73 | pKd [28, 30]: 5.03 | pKd [25, 30]: below the threshold | pKd [26, 30]: 3.78 | pKd [27, 30]: 4.01
B2: PLCB4, Q15147 (peptide)
chain: EMDRRPATVV

pKd [1, 30]: below the threshold | pKd [2, 30]: below the threshold | pKd [3, 30]: below the threshold | pKd [4, 30]: below the threshold | pKd [5, 30]: below the threshold | pKd [6, 30]: 4.07 | pKd [7, 30]: below the threshold | pKd [8, 30]: below the threshold | pKd [9, 30]: below the threshold | pKd [10, 30]: below the threshold | pKd [11, 30]: below the threshold | pKd [12, 30]: below the threshold | pKd [13, 30]: below the threshold | pKd [14, 30]: below the threshold | pKd [15, 30]: 3.82 | pKd [16, 30]: below the threshold | pKd [17, 30]: below the threshold | pKd [18, 30]: below the threshold | pKd [19, 30]: below the threshold | pKd [20, 30]: below the threshold | pKd [21, 30]: below the threshold | pKd [22, 30]: below the threshold | pKd [23, 30]: 3.82 | pKd [28, 30]: 3.67 | pKd [24, 30]: below the threshold | pKd [25, 30]: below the threshold | pKd [26, 30]: below the threshold | pKd [27, 30]: 4.39
B3: PPP1R13L, Q8WUF5 (peptide)
chain: PRVKPQRSKV

pKd [1, 29]: 4.06 | pKd [2, 29]: below the threshold | pKd [3, 29]: below the threshold | pKd [5, 29]: below the threshold | pKd [6, 29]: below the threshold | pKd [7, 29]: below the threshold | pKd [8, 29]: below the threshold | pKd [9, 29]: below the threshold | pKd [10, 29]: below the threshold | pKd [11, 29]: below the threshold | pKd [12, 29]: below the threshold | pKd [13, 29]: 4.51 | pKd [14, 29]: below the threshold | pKd [15, 29]: 4.25 | pKd [16, 29]: below the threshold | pKd [17, 29]: below the threshold | pKd [18, 29]: below the threshold | pKd [19, 29]: below the threshold | pKd [20, 29]: below the threshold | pKd [21, 29]: below the threshold | pKd [22, 29]: below the threshold | pKd [23, 29]: below the threshold | pKd [28, 29]: 4.54 | pKd [24, 29]: below the threshold | pKd [25, 29]: below the threshold | pKd [27, 29]: 3.94
B4: GRIN1, Q05586;Q05586-2 (peptide)
chain: LSDPSVSTVV

pKd [1, 30]: below the threshold | pKd [2, 30]: below the threshold | pKd [3, 30]: below the threshold | pKd [4, 30]: below the threshold | pKd [5, 30]: below the threshold | pKd [6, 30]: below the threshold | pKd [7, 30]: below the threshold | pKd [8, 30]: below the threshold | pKd [9, 30]: below the threshold | pKd [10, 30]: below the threshold | pKd [11, 30]: below the threshold | pKd [13, 30]: below the threshold | pKd [14, 30]: below the threshold | pKd [15, 30]: 5.98 | pKd [16, 30]: 4.22 | pKd [17, 30]: below the threshold | pKd [18, 30]: below the threshold | pKd [19, 30]: below the threshold | pKd [20, 30]: below the threshold | pKd [22, 30]: 4.66 | pKd [23, 30]: 5.76 | pKd [28, 30]: 4.24 | pKd [24, 30]: below the threshold | pKd [25, 30]: below the threshold | pKd [26, 30]: below the threshold | pKd [27, 30]: below the threshold
B5: ARHGEF7, Q14155;Q14155-1 (peptide)
chain: NDPAWDETNL
